Results as given in doi:10.1101/2025.04.22.649955.
Each block holds one substance with its values, some of them ahead of it.

Columns and labels:
[1] = biological target: SynGAP[PSD95] condensates (mCherry-SynGAP with PSD95-mGFP) (human | rat) (UniProt P31016)
Chain of UniProt P31016 (P31016 whole entry, looked up): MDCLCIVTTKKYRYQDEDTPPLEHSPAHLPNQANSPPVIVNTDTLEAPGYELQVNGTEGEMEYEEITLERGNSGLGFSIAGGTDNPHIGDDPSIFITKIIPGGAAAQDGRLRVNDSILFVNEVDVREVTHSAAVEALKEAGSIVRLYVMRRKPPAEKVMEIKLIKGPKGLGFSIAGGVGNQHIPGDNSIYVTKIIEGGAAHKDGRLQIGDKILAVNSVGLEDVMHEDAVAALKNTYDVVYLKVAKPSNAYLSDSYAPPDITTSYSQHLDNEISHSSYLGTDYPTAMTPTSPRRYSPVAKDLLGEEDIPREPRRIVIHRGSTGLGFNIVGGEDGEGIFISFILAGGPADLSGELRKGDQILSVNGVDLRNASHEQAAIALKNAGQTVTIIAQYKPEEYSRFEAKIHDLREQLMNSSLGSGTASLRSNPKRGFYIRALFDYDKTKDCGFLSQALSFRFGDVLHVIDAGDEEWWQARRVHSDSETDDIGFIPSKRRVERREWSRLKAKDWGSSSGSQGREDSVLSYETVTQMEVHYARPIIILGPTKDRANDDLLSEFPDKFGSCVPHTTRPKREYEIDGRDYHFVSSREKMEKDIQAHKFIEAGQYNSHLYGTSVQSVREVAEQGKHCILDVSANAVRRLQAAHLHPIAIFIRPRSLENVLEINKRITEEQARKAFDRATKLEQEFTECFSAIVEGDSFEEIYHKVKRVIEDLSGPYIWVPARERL

percent of molecules as dimers (GluA1(ΔNTD)-TARP2): 45% | percent of molecules as monomers (GluA1(ΔNTD)-TARP2): 41% | percent of molecules as tetramers (GluA1(ΔNTD)-TARP2): 14%
Substance: GluA1(ΔNTD)-TARP2

percent of molecules as dimers (GluA1-TARP2): 39% | percent of molecules as monomers (GluA1-TARP2): 19% | percent of molecules as tetramers (GluA1-TARP2): 2% | percent of molecules as trimers (GluA1-TARP2): 18%
Substance: GluA1-TARP2

fold of the fraction of the τ2 dwell-lifetime component against mNlg1 [1]: 2.5 fold
Substance: Halo7-tagged wild-type Neuroligin1 (from UniProt Q99K10 46-843) (receptor)
